From patent WO1995025167A1

What was measured:
[1] = molecular target: EGFR on EGFR-bearing tumor cells (human) (UniProt P00533); experiment: flow cytometry, crude bacterial supernatant on A431 cells, positive control
[2] = molecular target: EGFR on EGFR-bearing tumor cells (human) (UniProt P00533); experiment: flow cytometry, crude bacterial supernatant on HT29 cells, positive control
[3] = molecular target: EGFR on EGFR-bearing tumor cells (human) (UniProt P00533); experiment: flow cytometry, crude bacterial supernatant on MDA MB 231 cells, positive control

mean fluorescence (cytometric analysis) (arbitrary fluorescence units) [1]: 85.5
mean fluorescence (cytometric analysis) (arbitrary fluorescence units) [2]: 2.5
mean fluorescence (cytometric analysis) (arbitrary fluorescence units) [3]: 21.3
Substance: scFv derived from MAb 425
